According to patent US20240124568A1, “CHEMERIN INHIBITORS AND USES THEREOF FOR TREATING KIDNEY CANCER” (University of Miami, priority 2022, published 2024):
“Also recorded” adds a separate entry of the source.

What was measured:
786-O and 769-P cells = test: EdU incorporation assay (DNA synthesis); assay type: cell-based, human; conditions: chemerin-knockdown 786-O cells, etomoxir 50 μM and 100 μM, EdU flow cytometry
Protocol: EdU incorporation assay. […] After incubation, the cells were fixed with 3.7% formaldehyde/PBS for 15 minutes at room temperature and washed with 1 mL of 3% BSA/PBS twice. 1 mL of 0.5% TritonX-100 in PBS was added for 20 minutes at room temperature to permeabilize the cells. Next, cells were incubated with 0.5 mL of Click-iT reaction cocktail (Invitrogen, Cat #C10337) prepared according to manufacturer's instructions, at room temperature for 30 minutes and away from direct light. DAPI (Millipore, Cat #268298) was added later for DNA staining. […]

[1] = tested on: chemerin-knockdown 786-O cells; test: Cell proliferation assay, rescue in chemerin-knockdown 786-O cells; assay type: cell-based, human
Protocol: Cell Proliferation Assay. Cells were plated at a density of 100,000 cells in triplicate wells of a 6-well plate, supplemented with DMEM containing 10% FBS. Cells were trypsinized and were counted using the Cell Counter Countess II (Life Technologies) at days 3, 6, 9 and 12.

HIF2α mRNA in 786-O = test: qRT-PCR of HIF1α and HIF2α after fatty acid incubation; assay type: cell-based, human; conditions: 500 μM fatty acid for 24 hours
Protocol: RNA Isolation and Real Time Quantitative Polymerase Chain Reaction (qRT-PCR). Total RNA was extracted using TRIzol reagent (Invitrogen, Cat #15596018). The concentration and quality of RNA were determined using a NanoDrop 1000 spectrophotometer (Thermo). 500 ng of RNA was used to synthesize cDNA using the Quantabio qScript cDNA SuperMix (Quantabio, Cat #95048-100) according to the manufacturer's recommendations. The cDNA was diluted by 10-fold before used for qRT-PCR gene expression analysis. qRT-PCR was performed using Power SYBR Green PCR Master Mix (Applied Biosystems, Cat #4367659) and SYBR Green primers (Table 3). The Ct values of the gene of interest was normalized to the Ct value of the housekeeping control, β-actin. The fold change was then calculated using the 2^−ΔΔCt method. Sodium palmitate preparation and supplementation. To prepare BSA-palmitate conjugate, sodium palmitate (Thermo, Cat #P0500) was added to a NaCl solution and heated in a water bath while stirring. The hot palmitate solution was mixed with BSA solution, 5 mL at a time. The final volume was adjusted with 150 mM NaCl for 1 mM palmitate solution and pH was adjusted to 7.4. Sodium palmitate solution was added to cell at final concentration 500 μM and incubated for 24 hours.

[2] = tested on: HIF2α and chemerin protein in 786-O and 769-P cells; test: Immunoblots of lysates after fatty acid treatment; assay type: cell-based, human; conditions: 500 μM fatty acid
Protocol: Protein Extraction and Western blotting. The cells were washed with 1× ice-cold PBS (GE, Cat #SH30256.01) once before they were lysed in RIPA lysis buffer (50 mM Tris-HCl, pH 7.5; 150 mM NaCl; 0.5% NP-40; 50 mM NaF) and scraped from the plate on ice. The RIPA lysis buffer contained 1:1000 1× protease inhibitor cocktail (Sigma-Aldrich) and 1:100 1× phosphatase inhibitor (Sigma-Aldrich). The lysates were passed through a 16G needle 15 times before they were centrifuged at 4° C. for 20 minutes at 20,000×g. The protein lysates were quantified using the Pierce BCA Protein Assay Kit (Thermo) according to the manufacturer's protocols and absorbance was measured using GloMax Discover Microplate Reader (Promega). Between 50 and 100 μg of protein samples were mixed with 5×SDS Laemmli loading buffer and boiled at 95° C. for 5 minutes. Proteins were separated using 4-20% SDS-PAGE gels (Bio-Rad) and transferred onto PVDF membrane (Millipore). The membrane was blocked with TBS-T supplemented with 5% non-fat dry milk primary antibody for 45 minutes at room temperature rocking before blotting with primary antibodies at 4° C. overnight. The membrane was washed in TB S-T 3 times with 5 minutes each and blotted in secondary antibodies at room temperature for 2 hours. An Azure 300 chemiluminescent western blot imaging system (Azure biosystems) was used to visualize the membrane. […]

786-O cells [3] = test: BODIPY 493/503 lipid droplet imaging; assay type: cell-based, human; conditions: chemerin-silenced 786-O cells; 50 nM recombinant chemerin protein for 18 hours
Protocol: BODIPY Lipid Droplet Imaging. Cells were plated on round glass coverslips of 12-well plates and incubated with 1 mL of DMEM supplemented with 10% FBS. The medium was removed and cells were washed with room temperature PBS, fixed with 4% formaldehyde for 30 minutes and incubated with 300 μL of 1 uM BODIPY 493/503 (Life Technologies, Cat #D3922) for 15 minutes, protected from direct light. 1 μg/mL of DAPI (Millipore) was added for nucleus staining. The z stack images were acquired using Olympus FV1000 confocal scanning microscope and analyzed using Fiji software (ImageJ).

786-O cells [4] = test: Cell viability assay (MTT) after monoclonal antibody treatment, 786-O; assay type: cell-based, human; conditions: increasing concentrations of mAb, 2, 4 and 6 days
Protocol: Cell Viability Assay. After treatment with monoclonal antibodies, 786-O cells were incubated with 3-(4,5-dimethylthiazol-2-yl)-2,5-diphenylterazolium bromide (MTT, Sigma-Aldrich) to assess cell survival. Briefly, the cells were plated at density of 1000 cells/plate in 96-well plates and treated with different concentrations of monoclonal antibodies (IgG or anti-RARRES2) for indicated incubation times (2 days, 4 days and 6 days). MTT solution was diluted 5-fold in DMEM media and incubated in 37° C. incubator for 4 hours. The media was carefully removed and the precipitate was dissolved in DMSO. The solution later immediately quantified at 450 nm using the GloMax Discover Microplate Reader (Promega).

HK-2 cells = test: Cell viability assay (MTT) after monoclonal antibody treatment, HK-2; assay type: cell-based, human; conditions: similar dose range of the antibody
786-O cells [5] = test: Oil Red O (ORO) lipid droplet staining of cells; assay type: cell-based, human; conditions: compared to treatment with IgG
Protocol: Oil Red O (ORO) Lipid Droplet Staining. For tissue sections staining, the tissues were cryoprotected by incubating in 30% sucrose/PBS solution. After the tissues sank to the bottom of the vial, the tissues were embedded in OCT (Fisher Healthcare). Embedded tissue blocks were sectioned at 10 μm thickness and stored at −80° C. until ready for staining. Before ORO staining, the frozen sections were air dried and fixed in 10% neutral buffered formalin (Sigma-Aldrich, Cat #HT501128). After fixing in 100% propylene glycol (VWR, Cat #0575) twice, sections were stained with freshly made ORO solution (Sigma-Aldrich, Cat #00625) followed by staining for hematoxylin. Then, the slides were washed with distilled water and mounted using glycerin jelly (Sigma-Aldrich). The sections were visualized using a VS120 Virtual Slide Microscope scanner (Olympus). For cell staining, the cells plated in 12-well plates in triplicate were rinsed with PBS twice, and fixed with 10% formaldehyde for 1 hour. […] After the cells were air dried, 250 μL of isopropanol was added to the wells and the eluted solution was measured at 510 nm. Next, the cells were stained with sulforhodamine B as previously described, and measured at 564 nm using GloMax Discover Microplate Reader (Promega), as previously described.

786-O cells [6] = test: Lipid reactive oxygen species, BODIPY 581/591 C11; assay type: cell-based, human; conditions: compared to treatment with IgG
Protocol: Lipid Reactive Oxygen Species. The cells were plated at 50,000 cells per well in 24-well plate. 10 uM BODIPY-581/591 C11 (Invitrogen, Cat #D3861) and 1 ug/mL DAPI (Millipore) were added to the media and incubated for 1 hour at 37° C., 5% CO2. Cells were imaged using Olympus FV1000 confocal scanning microscope and analyzed using Fiji software (ImageJ). 9 randomly selected images per condition were selected for analysis.

786-O orthotopic tumors = test: Orthotopic 786-O tumor growth under left kidney capsule of nude mice (bioluminescence imaging); assay type: in vivo; conditions: for in vivo 786-O tumor growth (bioluminescence imaging): 20 mg/kg twice weekly versus IgG control mAb, n=6 each arm; for animal weight / toxicity: nude mice with orthotopic 786-O, 20 mg/kg twice weekly, weight recorded weekly
Description: Animal Studies. All animal experiments were in compliance with National Institutes of Health guidelines and were approved by the Institutional Animal Care and Use Committee (IACUC) of the University of Miami Miller School of Medicine. Six-week-old female athymic nude mice (Charles River Laboratories) were used for xenograft studies. Mice were housed (3-5 mice per cage) on a 12-hour light/dark cycle in individually ventilated cages, and with ad libitum access to food and water. The experimental holding room had temperature (21.5° C. set point) and humidity control (40% set point), and it was equipped with HEPA-filtered air. For subcutaneous tumor growth model, cells were pelleted and resuspended in a PBS/Matrigel Matrix (Corning, Cat #356234) mix at 1:1 ratio. 2×10^6 cells in a 100 μL solution were injected subcutaneously into each flank. Once palpable tumors were established, digital calipers were used to measure tumor size twice weekly. Tumor volume was calculated using the equation V=½ (length×width^2). For orthotopic tumor growth assays, soft collagen pellets containing 1×10^6 cells were implanted orthotopically under the capsules of the left kidney. Tumors were palpated and monitored twice weekly using IVIS bioluminescence imaging (Perkin Elmer). At the end of the experiments, blood was collected and both kidneys were harvested.

[7] = tested on: patient derived xenograft of kidney cancer; test: Patient derived xenograft of kidney cancer, antibody versus cabozantinib (FIG. 20); assay type: in vivo; conditions: antibody 20 mg/kg twice per week versus cabo 10 mg/kg 5 times per week

Molecule: CCOC(=O)[C@@]1(CCCCCCOc2ccc(Cl)cc2)CO1 [etomoxir]
- rescue of DNA synthesis (EdU) (786-O and 769-P cells): rescued the reduction in DNA synthesis
- rescue of DNA synthesis (EdU) (786-O and 769-P cells; listed as Etomoxir): rescues tumorigenesis
- rescue of proliferation defect ([1]; chemerin-knockdown 786-O cells, 50 μM Etomoxir): rescued
- rescue of proliferation defect ([1]; chemerin-knockdown 786-O cells, 50 μM Etomoxir, listed as Etomoxir): rescues proliferation defect

Molecule: Clc1cccc(CN=C2Nc3ccccc3NC23CCNCC3)c1 [Liproxstatin-1]
- rescue of proliferation defect ([1]; chemerin-deficient 786-O cells, 0.5 μM Liproxstatin-1): rescued the proliferation defect

Molecule: CCCCC/C=C\C/C=C\CCCCCCCC(=O)O [linoleic acid]
- HIF2α mRNA (HIF2α mRNA in 786-O): opposite pattern
- HIF2α protein [2]: opposite pattern; also recorded: decreased
- chemerin protein [2]: opposite pattern; also recorded: decreased

Molecule: CCOC(=O)c1ccc(NC2CCCCC2)c(N)c1 [Ferrostatin-1]
- rescue of proliferation defect ([1]; chemerin-deficient 786-O cells, 1 μM Ferrostatin-1): rescued the proliferation defect

B1: recombinant chemerin protein: recombinant chemerin protein used to rescue chemerin-silenced cells (protein, UniProt Q99969 21-157, looked up)
Retinoic acid receptor …: ELTEAQRRGLQVALEEFHKHPPVQWAFQETSVESAVDTPFPAGIFVRLEFKLQQTSCRKRDWKKPECKVRPNGRKRKCLACIKLGSEDKVLGRLVHCPIETQVLREAEEHQETQCLRVQRAGEDPHSFYFPGQFAFS
- rescue of lipid deposition (BODIPY 493/503) (786-O cells [3]): partially rescued; also recorded: rescued the lipid deposition defect

B2: chemerin mAb: monoclonal antibody against chemerin; heavy chain SEQ ID NO: 3, light chain SEQ ID NO: 4 (antibody, V domains shown)
VH: MEWNWVVLFLLSLTAGVYSQGQMQQSGAELVKPGASVKLSCKTSGFTFSSSYISWLKQKPRQSLEWIAWIYAGTGGTSYNQKFTGKAQLTVDTSSSTAYMQLSSLTSEDSAIYYCASFWDSWGQGTTLTVSS
VL: MRCLAEFLGLLVLWIPGAIGDIVMTQAAPSVPVTPGESVSISCRSSKSLLHSNGNTYLYWFLQRPGQSPQLLIYRMSNLASGVPDRFSGSGSGTAFTLRISRVEAEDVGVYYCMQHLEYPLTFGAGTKLELK
- cell viability (786-O cells [4]): dose-dependent reduction in cell viability
- cell viability (HK-2 cells): cell viability was not affected
- lipid droplets (ORO staining quantification) (786-O cells [5]): decrease in lipid droplets
- lipid ROS (BODIPY 581/591 C11) (786-O cells [6]): increase in lipid ROS
- in vivo 786-O tumor growth (bioluminescence imaging) (786-O orthotopic tumors): significantly reduced
- in vivo 786-O tumor growth (bioluminescence imaging) (786-O orthotopic tumors; listed as monoclonal antibody (mAb) targeting chemerin): reduces ccRCC tumor burden
- tumor weight upon sacrifice (786-O orthotopic tumors; 20 mg/kg twice weekly versus IgG mAb, n=6 each group): lower tumor weights
- animal weight / toxicity (786-O orthotopic tumors): did not result in significant changes in animal weight
- animal weight / toxicity (786-O orthotopic tumors; listed as monoclonal antibody targeting chemerin): no toxicity
- efficacy compared with cabozantinib [7]: as effective as cabo
